In patent publication US20240400703A1 (Genmab, published 2024):
Substitutions are numbered along the chain they refer to. Names may count otherwise.

B1: IgG1-CD134-012-RR-K409R (antibody)
heavy: QSLEESGGRLVTPGTPLTLICTVSGIDLSSGAMGWVRQAPGKGLEYIGYIYTGSGTTSYASWVNGRFTISMTSTTVDLKITSPTTEDTATYFCARDAASSYWGHFTLWGQGTLVTVSSASTKGPSVFPLAPSSKSTSGGTAALGCLVKDYFPEPVTVSWNSGALTSGVHTFPAVLQSSGLYSLSSVVTVPSSSLGTQTYICNVNHKPSNTKVDKRVEPKSCDKTHTCPPCPAPELLGGPSVFLFPPKPKDTLMISRTPEVTCVVVDVSHEDPEVKFNWYVDGVEVHNAKTKPREEQYNSTYRVVSVLTVLHQDWLNGKEYKCKVSNKALRAPIEKTISKAKGQPRRPQVYTLPPSREEMTKNQVSLTCLVKGFYPSDIAVEWESNGQPENNYKTTPPVLDSDGSFFLYSRLTVDKSRWQQGNVFSCSVMHEALHNHYTQKSLSLSPG
light: DIVMTQTPASVEAAVGGTVTIKCQASENIYSSLAWYQQKPGQPPKLLIYRTSTLASGVPSRFKGSGSGTQFTLTISDLESDDAATYYCQSYYHNSGGGYDYGFGGGTEVVAKRTVAAPSVFIFPPSDEQLKSGTASVVCLLNNFYPREAKVQWKVDNALQSGNSQESVTEQDSKDSTYSLSSTLTLSKADYEKHKVYACEVTHQGLSSPVTKSFNRGEC
notes: also called IgG1-CD134-012-P329R-E345R-K409R
B2: IgG1-CD134-007-RR (antibody)
heavy: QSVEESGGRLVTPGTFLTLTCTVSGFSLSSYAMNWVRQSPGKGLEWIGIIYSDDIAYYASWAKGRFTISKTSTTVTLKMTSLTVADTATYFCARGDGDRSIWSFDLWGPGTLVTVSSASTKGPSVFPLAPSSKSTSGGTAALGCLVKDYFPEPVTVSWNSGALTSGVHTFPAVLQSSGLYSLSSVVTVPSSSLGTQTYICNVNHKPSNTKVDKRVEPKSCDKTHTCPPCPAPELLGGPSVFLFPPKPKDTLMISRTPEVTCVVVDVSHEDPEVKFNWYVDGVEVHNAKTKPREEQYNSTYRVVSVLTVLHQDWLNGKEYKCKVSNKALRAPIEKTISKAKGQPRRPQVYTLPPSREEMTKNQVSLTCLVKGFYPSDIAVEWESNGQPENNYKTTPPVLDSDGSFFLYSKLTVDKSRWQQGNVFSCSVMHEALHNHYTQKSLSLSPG
light: AQVLTQTPSPVSAAVGGTVTISCQSSESVWNNNWLAWYQQKPGQPPNLLIYEASTLASGVSSRFKGSGSGTQFTLTVSEVQSDDAATYYCQGGYYDSSPIWTFGGGTEVVVKRTVAAPSVFIFPPSDEQLKSGTASVVCLLNNFYPREAKVQWKVDNALQSGNSQESVTEQDSKDSTYSLSSTLTLSKADYEKHKVYACEVTHQGLSSPVTKSFNRGEC
notes: non-humanized 007 variable regions; also called IgG1-CD134-007-P329R-E345R

Legend:
[1] = target: T1, human OX40 with mouse CRD2 (human with mouse CRD2, UniProt P43489 29-277); test: flow cytometry, transfected ExpiCHO-S cells, MFI at 5 µg/mL as % of IgG1-CD134-A4453
T1 construct: on ExpiCHO-S cells; also called OX40-CRD2mm; Shuffle 2
T1 chain: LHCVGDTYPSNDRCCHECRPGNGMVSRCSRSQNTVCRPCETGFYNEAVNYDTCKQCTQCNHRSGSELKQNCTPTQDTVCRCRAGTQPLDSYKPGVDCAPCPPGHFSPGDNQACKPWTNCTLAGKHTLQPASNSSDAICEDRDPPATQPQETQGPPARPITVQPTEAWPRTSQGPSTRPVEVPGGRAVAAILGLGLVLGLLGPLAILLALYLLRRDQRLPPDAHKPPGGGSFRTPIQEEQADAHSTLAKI
Experimental: (§1) The four shuffle constructs, as well as wild-type human and mouse OX40 were transiently expressed on ExpiCHO-S cells using the ExpiFectamine™ CHO Transfection Kit (ThermoFisher, cat. no. A29131), according to the manufacturer's protocol. […] Next, cells were washed twice in FACS buffer 1, were resuspended in a 30 μL solution of viability marker ToPro-3 (Invitrogen, cat. no. T3605, diluted 1:10,000) in FACS buffer 1 supplemented with 2 mM EDTA, and were analyzed on an iQue Screener Plus (Intellicyt Corporation, USA). Data were analyzed using FlowJo software and visualized using GraphPad Prism.

[2] = target: T2, human OX40 with mouse CRD3 (human with mouse CRD3, UniProt P43489 29-277); test: as above
T2 construct: on ExpiCHO-S cells; also called OX40-CRD3mm; Shuffle 3
T2 chain: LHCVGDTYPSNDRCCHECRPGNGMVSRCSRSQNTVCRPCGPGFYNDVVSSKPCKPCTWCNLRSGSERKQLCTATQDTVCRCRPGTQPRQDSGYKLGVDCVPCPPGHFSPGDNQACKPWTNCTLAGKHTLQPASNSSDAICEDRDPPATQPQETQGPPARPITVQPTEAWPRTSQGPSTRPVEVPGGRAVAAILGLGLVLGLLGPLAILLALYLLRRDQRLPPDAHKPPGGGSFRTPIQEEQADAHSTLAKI
Experimental: as §1

[3] = target: T3, human OX40 expressed on cells (human, UniProt P43489 29-277); test: flow cytometry, OX40-transfected HEK293F cells, gMFI (PE)
T3 construct: also called CD134; TNFRSF4
T3 sequence: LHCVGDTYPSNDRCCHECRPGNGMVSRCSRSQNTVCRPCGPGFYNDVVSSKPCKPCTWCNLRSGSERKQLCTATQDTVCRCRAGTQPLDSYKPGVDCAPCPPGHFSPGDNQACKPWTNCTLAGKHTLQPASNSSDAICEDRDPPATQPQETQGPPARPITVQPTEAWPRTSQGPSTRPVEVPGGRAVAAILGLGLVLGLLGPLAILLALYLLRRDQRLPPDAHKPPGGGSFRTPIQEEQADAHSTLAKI
Experimental: (§2) Transfected cells were seeded in 96-well plates (30,000 cells/well; ThermoFisher, cat. no. 163320) for sequential incubations, with washing steps in between using fluorescence-activated cell sorting (FACS) buffer 1 (phosphate buffered saline [PBS; Lonza, cat. no. BE17-517Q] supplemented with 0.1% bovine serum albumin [BSA; Roche, cat. no. 10735086001] and 0.02% sodium azide [NaN₃; Bio-World, cat. no. 41920044-3]) supplemented with 2 mM ethylenediaminetetraacetic acid (EDTA; Sigma-Aldrich, cat. no. 03690). […] Cells were then washed using EDTA-supplemented FACS buffer 1, resuspended in a 30 μL solution of viability marker ToPro-3 (Invitrogen, cat. no. T3605, diluted 1:10,000) in EDTA-supplemented FACS buffer 1, and subsequently analyzed on an iQue® 3 flow cytometer (Satorius). Data were analyzed using FlowJo software and were visualized using GraphPad Prism.

[4] = target: T4, cynomolgus monkey OX40 expressed on HEK293F cells (cynomolgus monkey (Macaca fascicularis), UniProt P43489 29-277 (human entry)); test: as above
T4 construct: full-length entry
T4 chain: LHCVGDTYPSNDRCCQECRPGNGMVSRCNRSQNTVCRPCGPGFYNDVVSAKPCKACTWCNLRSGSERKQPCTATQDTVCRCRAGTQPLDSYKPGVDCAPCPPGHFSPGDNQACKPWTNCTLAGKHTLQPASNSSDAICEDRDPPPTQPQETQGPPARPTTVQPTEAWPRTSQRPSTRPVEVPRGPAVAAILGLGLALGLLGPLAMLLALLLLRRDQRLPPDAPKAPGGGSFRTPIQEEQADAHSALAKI
Experimental: as §2

[5] = target: T5, mouse OX40 expressed on ExpiCHO-S cells (mouse, UniProt P47741 20-272); test: flow cytometry, transfected ExpiCHO-S cells, gMFI (PE)
T5 construct: full-length entry; also called OX40mm; wild-type mouse OX40
T5 sequence: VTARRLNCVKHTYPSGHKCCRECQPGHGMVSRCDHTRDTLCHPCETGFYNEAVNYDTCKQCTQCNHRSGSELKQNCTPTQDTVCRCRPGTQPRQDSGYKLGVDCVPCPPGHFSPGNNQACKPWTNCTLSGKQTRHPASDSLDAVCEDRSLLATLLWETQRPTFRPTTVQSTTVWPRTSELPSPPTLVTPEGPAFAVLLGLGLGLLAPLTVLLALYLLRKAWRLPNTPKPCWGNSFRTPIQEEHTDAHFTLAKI

[6] = target: T6, human OX40 with mouse CRD4 (human with mouse CRD4, UniProt P43489 29-277); test: as above
T6 construct: on ExpiCHO-S cells; also called OX40-CRD4mm; Shuffle 4
T6 chain: T3 sequence with D109N, A122S, H125Q, L127R, Q128H, N132D, S134L, I137V
Experimental: as §1

[7] = target: T7, human OX40 with mouse CRD1 (human with mouse CRD1, UniProt P43489 29-277); test: flow cytometry, transfected ExpiCHO-S cells, MFI at 5 µg/mL as % of IgG1-CD134-A4453
T7 construct: on ExpiCHO-S cells; also called OX40-CRD1mm; Shuffle 1
T7 chain: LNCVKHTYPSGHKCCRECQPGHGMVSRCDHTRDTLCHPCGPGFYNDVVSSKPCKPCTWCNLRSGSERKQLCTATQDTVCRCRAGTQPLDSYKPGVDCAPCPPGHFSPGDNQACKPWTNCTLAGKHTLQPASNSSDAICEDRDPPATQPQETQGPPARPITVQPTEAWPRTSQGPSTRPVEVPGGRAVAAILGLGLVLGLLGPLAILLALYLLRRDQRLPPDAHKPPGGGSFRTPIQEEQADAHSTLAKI
Experimental: as §1

[8] = target: T1, human OX40 with mouse CRD2; test: flow cytometry, transfected ExpiCHO-S cells, gMFI (PE)

Binder	binding result [1]	binding result [2]	EC50 (read off the curve) [3] [µg/mL]	EC50 (read off the curve) [4] [µg/mL]	binding result [5]	binding result [6]	binding result [7]	binding result [8]
B1	binds	binds	~0.05	~0.06	no binding (tested: 50 µg/mL)	binds		
B2		binds	~0.05	~0.04	no binding (tested: 50 µg/mL)	binds	binds	no binding (tested: 50 µg/mL)
